In PMC12242769 one finds Kd data, which are given here for one substance.

Common to all, as to assay: EMSA
A general note: A gel shift assay detects complexes by their altered migration in electrophoresis.

Data set [1] has as its system TbLa (wild type) (Trypanosoma brucei). The note with it: 1 mM Mg2+; apparent Kd from Hill fit; native tRNA modifications except queuosine (from TbTGT2Δ cells); 50 mM HEPES pH 7.5, 1 mM MgCl2, 5 mM KCl; on ice 30 min; ~0.6 nM tRNA, 10 µl; 6% native PAGE.
The subject of data set [2] is TbLa RRM1Δ (Trypanosoma brucei). The following applies: native tRNA modifications except queuosine (from TbTGT2Δ cells); 50 mM HEPES pH 7.5, 1 mM MgCl2, 5 mM KCl; on ice 30 min; ~0.6 nM tRNA, 10 µl; 6% native PAGE.
The test system of data set [3] is TbLa LaMΔ (Trypanosoma brucei). The note with it: native tRNA modifications except queuosine (from TbTGT2Δ cells); 50 mM HEPES pH 7.5, 1 mM MgCl2, 5 mM KCl; on ice 30 min; ~0.6 nM tRNA, 10 µl; 6% native PAGE.

As to native mature tRNATyr lacking Q34, the Kd in data set [1] was determined as 216 nM; in data set [2], 446 nM; in data set [3] it was 855 nM.
